In publication PMC9549385:

Target: human delta-opioid receptor (human) (UniProt P41143)

- Emax of ERK1/2 phosphorylation (% of SNC80 maximum, In-Cell Western) in CHO-K1-hDOPr cells, 5 min stimulation: 36 % SNC80
Substance: [D-Ala2, D-Leu5]-enkephalin (peptide)
